Data: patent publication US20230391845A1, “GLP-1, GIP AND GLUCAGON RECEPTOR TRIPLE AGONISTS” (priority 2020, published 2023)
Where no end group is shown, it is not given here. [ ]: non-standard residue; d: D form. Aib = CC(C)(N)C(=O)O

Legend:
Assay in all cases: cell-based or functional assay
[1] = molecular target: human glucagon receptor (human, UniProt P47871 26-477)
[2] = molecular target: T1, human glucose-dependent insulinotropic polypeptide receptor (human, UniProt P48546 22-466)
T1 sequence (looked up): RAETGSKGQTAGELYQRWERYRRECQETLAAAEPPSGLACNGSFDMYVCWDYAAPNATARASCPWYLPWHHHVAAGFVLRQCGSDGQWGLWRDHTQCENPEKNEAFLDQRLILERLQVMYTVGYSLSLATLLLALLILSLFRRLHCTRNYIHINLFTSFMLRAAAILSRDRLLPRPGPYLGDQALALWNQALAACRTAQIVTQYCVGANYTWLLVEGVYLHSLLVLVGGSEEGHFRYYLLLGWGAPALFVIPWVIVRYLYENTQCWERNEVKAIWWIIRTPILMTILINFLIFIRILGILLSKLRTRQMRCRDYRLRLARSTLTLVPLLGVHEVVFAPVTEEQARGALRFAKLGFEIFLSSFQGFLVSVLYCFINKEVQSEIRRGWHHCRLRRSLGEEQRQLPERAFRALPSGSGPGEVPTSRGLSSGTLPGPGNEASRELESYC

[3] = molecular target: human glucagon-like peptide 1 receptor (human, UniProt P43220 24-463)

human glucagon receptor, sequence (P47871 26-477): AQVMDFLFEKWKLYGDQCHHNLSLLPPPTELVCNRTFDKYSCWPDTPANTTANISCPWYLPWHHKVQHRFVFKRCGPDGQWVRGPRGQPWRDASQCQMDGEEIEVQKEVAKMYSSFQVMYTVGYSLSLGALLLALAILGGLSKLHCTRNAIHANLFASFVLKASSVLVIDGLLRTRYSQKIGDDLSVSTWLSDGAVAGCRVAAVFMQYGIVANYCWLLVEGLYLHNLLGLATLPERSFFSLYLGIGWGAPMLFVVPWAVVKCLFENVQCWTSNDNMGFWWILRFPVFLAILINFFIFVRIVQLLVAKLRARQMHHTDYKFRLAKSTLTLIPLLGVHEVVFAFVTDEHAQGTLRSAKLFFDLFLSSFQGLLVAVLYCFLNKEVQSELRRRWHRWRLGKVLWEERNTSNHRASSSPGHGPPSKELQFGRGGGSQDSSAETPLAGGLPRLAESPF

B1: Compound No. 44 (peptide)
peptide: H[Aib]HGTFTSDYSIYLEKQAA[Aib]EFVQWLLEGGPSSGAPPPS-NH2
modifications: not fully specified (residue 16); printed as H-Aib-HGTFTSDYSIYLE-K[2-[2-[2-[[2-[2-[2-[[(4S)-4-carboxy-4-(19-carboxynonadecanoylamino)butanoyl]amino]ethoxy]ethoxy]acetyl]amino]ethoxy]ethoxy]acetyl]-QAA-Aib-EFVQWLLEGGPSSGAPPPS-NH2
- hGcgR CRE Luc EC50 (pM) [1]: 45.2 pM
- hGIPR CRE Luc EC50 (pM) [2]: 6.1 pM
- hGLP-1R CRE Luc EC50 (pM) [3]: 1.8 pM

B2: Compound No. 56 (peptide)
peptide: H[Aib]HGTFTSDYSILLEKQAAHEFVQWLLEGGPSSGAPPPS-OH
modifications: not fully specified (residue 16); printed as H-Aib-HGTFTSDYSILLE-K[(2S)-2-amino-6-[[(2S)-2-amino-6-[[(4S)-4-carboxy-4-(17-carboxyheptadecanoylamino)butanoyl]amino]hexanoyl]amino]hexanoyl]-QAAHEFVQWLLEGGPSSGAPPPS-OH
- hGcgR CRE Luc EC50 (pM) [1]: 6.4 pM
- hGIPR CRE Luc EC50 (pM) [2]: 2.3 pM
- hGLP-1R CRE Luc EC50 (pM) [3]: 1.1 pM

B3: Compound No. 45 (peptide)
peptide: H[Aib]HGTFTSDYSILLEKQAA[Aib]EFVQWLLEGGPSSGAPPPS-NH2
modifications: not fully specified (residue 16); printed as H-Aib-HGTFTSDYSILLE-K[2-[2-[2-[[2-[2-[2-[[(4S)-4-carboxy-4-(19-carboxynonadecanoylamino)butanoyl]amino]ethoxy]ethoxy]acetyl]amino]ethoxy]ethoxy]acetyl]-QAA-Aib-EFVQWLLEGGPSSGAPPPS-NH2
- hGcgR CRE Luc EC50 (pM) [1]: 6.8 pM
- hGIPR CRE Luc EC50 (pM) [2]: 1.9 pM
- hGLP-1R CRE Luc EC50 (pM) [3]: 2.4 pM

B4: Compound No. 49 (peptide)
peptide: H[Aib]HGTFTSDYSILLEKQAAEEFVQWLLEGGPSSGAPPPS-NH2
modifications: not fully specified (residue 16); printed as H-Aib-HGTFTSDYSILLE-K[(2S)-2-amino-6-[[(2S)-2-amino-6-[[(4S)-4-carboxy-4-(19-carboxynonadecanoylamino)butanoyl]amino]hexanoyl]amino]hexanoyl]-QAAEEFVQWLLEGGPSSGAPPPS-NH2
- hGcgR CRE Luc EC50 (pM) [1]: 3.5 pM
- hGIPR CRE Luc EC50 (pM) [2]: 2.1 pM
- hGLP-1R CRE Luc EC50 (pM) [3]: 1.4 pM

B5: Compound No. 46 (peptide)
peptide: Y[Aib]QGTFTSDYSILLEKQAA[Aib]EFVQWLLEGGPSSGAPPPS-NH2
modifications: not fully specified (residue 16); printed as Y-Aib-QGTFTSDYSILLE-K[(2S)-2-amino-6-[[(2S)-2-amino-6-[[(4S)-4-carboxy-4-(19-carboxynonadecanoylamino)butanoyl]amino]hexanoyl]amino]hexanoyl]-QAA-Aib-EFVQWLLEGGPSSGAPPPS-NH2
- hGcgR CRE Luc EC50 (pM) [1]: 25 pM
- hGIPR CRE Luc EC50 (pM) [2]: 3 pM
- hGLP-1R CRE Luc EC50 (pM) [3]: 8.3 pM

B6: Compound No. 54 (peptide)
peptide: H[Aib]HGTFTSDYSILLEKQAAREFVQWLLEGGPSSGAPPPS-OH
modifications: not fully specified (residue 16); printed as H-Aib-HGTFTSDYSILLE-K[(2S)-2-amino-6-[[(2S)-2-amino-6-[[(4S)-4-carboxy-4-(17-carboxyheptadecanoylamino)butanoyl]amino]hexanoyl]amino]hexanoyl]-QAAREFVQWLLEGGPSSGAPPPS-OH
- hGcgR CRE Luc EC50 (pM) [1]: 22.8 pM
- hGIPR CRE Luc EC50 (pM) [2]: 28 pM
- hGLP-1R CRE Luc EC50 (pM) [3]: 1.5 pM

B7: Compound No. 47 (peptide)
peptide: Y[Aib]QGTFTSDYSYYLEKQAA[Aib]EFVQWLLEGGPSSGAPPPS-NH2
modifications: not fully specified (residue 16); printed as Y-Aib-QGTFTSDYSYYLE-K[(2S)-2-amino-6-[[(2S)-2-amino-6-[[(4S)-4-carboxy-4-(19-carboxynonadecanoylamino)butanoyl]amino]hexanoyl]amino]hexanoyl]-QAA-Aib-EFVQWLLEGGPSSGAPPPS-NH2
- hGcgR CRE Luc EC50 (pM) [1]: 28.7 pM
- hGIPR CRE Luc EC50 (pM) [2]: 14.9 pM
- hGLP-1R CRE Luc EC50 (pM) [3]: 5.6 pM

B8: Compound No. 51 (peptide)
peptide: H[Aib]HGTFTSDYSILLEKQAAEEFVQWLLEGGPSSGAPPPS-OH
modifications: not fully specified (residue 16); printed as H-Aib-HGTFTSDYSILLE-K[(2S)-2-amino-6-[[(2S)-2-amino-6-[[(4S)-4-carboxy-4-(17-carboxyheptadecanoylamino)butanoyl]amino]hexanoyl]amino]hexanoyl]-QAAEEFVQWLLEGGPSSGAPPPS-OH
- hGcgR CRE Luc EC50 (pM) [1]: 79.9 pM
- hGIPR CRE Luc EC50 (pM) [2]: 1.8 pM
- hGLP-1R CRE Luc EC50 (pM) [3]: 0.7 pM

B9: Compound No. 55 (peptide)
peptide: H[Aib]HGTFTSDYSILLEKQAAREFVQWLLEGGPSSGAPPPS-OH
modifications: not fully specified (residue 16); printed as H-Aib-HGTFTSDYSILLE-K[(2S)-2-amino-6-[[(2S)-2-amino-6-[[(4S)-4-carboxy-4-(19-carboxynonadecanoylamino)butanoyl]amino]hexanoyl]amino]hexanoyl]-QAAREFVQWLLEGGPSSGAPPPS-OH
- hGcgR CRE Luc EC50 (pM) [1]: 18.8 pM
- hGIPR CRE Luc EC50 (pM) [2]: 7.5 pM
- hGLP-1R CRE Luc EC50 (pM) [3]: 2 pM

B10: Compound No. 4 (peptide)
peptide: Y[Aib]QGTFTSDYSIYLDKQAA[Aib]KFVQWLLEGGPSSGAPPPS-NH2
modifications: not fully specified (residue 21); printed as Y-Aib-QGTFTSDYSIYLDKQAA-Aib-K[2-[2-[2-[[2-[2-[2-[[(4S)-4-carboxy-4-(17-carboxyheptadecanoylamino)butanoyl]amino]ethoxy]ethoxy]acetyl]amino]ethoxy]ethoxy]acetyl]-FVQWLLEGGPSSGAPPPS-NH2
- hGcgR CRE Luc EC50 (pM) [1]: 31.4 pM
- hGIPR CRE Luc EC50 (pM) [2]: 60.3 pM
- hGLP-1R CRE Luc EC50 (pM) [3]: 9.4 pM

B11: Compound No. 52 (peptide)
peptide: H[Aib]HGTFTSDYSILLEKQAAQEFVQWLLEGGPSSGAPPPS-OH
modifications: not fully specified (residue 16); printed as H-Aib-HGTFTSDYSILLE-K[(2S)-2-amino-6-[[(2S)-2-amino-6-[[(4S)-4-carboxy-4-(17-carboxyheptadecanoylamino)butanoyl]amino]hexanoyl]amino]hexanoyl]-QAAQEFVQWLLEGGPSSGAPPPS-OH
- hGcgR CRE Luc EC50 (pM) [1]: 14.9 pM
- hGIPR CRE Luc EC50 (pM) [2]: 6.6 pM
- hGLP-1R CRE Luc EC50 (pM) [3]: 0.8 pM

B12: Compound No. 5 (peptide)
peptide: Y[Aib]QGTFTSDYSIYLDKQAA[Aib]EFVNWLLAGGPSSGAPPPS-NH2
modifications: not fully specified (residue 16); printed as Y-Aib-QGTFTSDYSIYLD-K[2-[2-[2-[2-[2-[2-[[[(4S)-4-carboxy-4-(19-carboxynonadecanoylamino) butanoyl]amino]ethoxy]ethoxy]acetyl]amino]ethoxy]ethoxy]acetyl]-QAA-Aib-EFVNWLLAGGPSSGAPPPS-NH2
- hGcgR CRE Luc EC50 (pM) [1]: 205 pM
- hGIPR CRE Luc EC50 (pM) [2]: 20.6 pM
- hGLP-1R CRE Luc EC50 (pM) [3]: 7.2 pM

B13: Compound No. 48 (peptide)
peptide: Y[Aib]QGTFTSDYSYLLEKQAA[Aib]EFVQWLLEGGPSSGAPPPS-NH2
modifications: not fully specified (residue 16); printed as Y-Aib-QGTFTSDYSYLLE-K[(2S)-2-amino-6-[[(2S)-2-amino-6-[[(4S)-4-carboxy-4-(19-carboxynonadecanoylamino)butanoyl]amino]hexanoyl]amino]hexanoyl]-QAA-Aib-EFVQWLLEGGPSSGAPPPS-NH2
- hGcgR CRE Luc EC50 (pM) [1]: 12.6 pM
- hGIPR CRE Luc EC50 (pM) [2]: 9.2 pM
- hGLP-1R CRE Luc EC50 (pM) [3]: 10.1 pM

B14: Compound No. 50 (peptide)
peptide: H[Aib]HGTFTSDYSILLEKQAAEEFVQWLLEGGPSSGAPPPS-OH
modifications: not fully specified (residue 16); printed as H-Aib-HGTFTSDYSILLE-K[(2S)-2-amino-6-[[(2S)-2-amino-6-[[(4S)-4-carboxy-4-(19-carboxynonadecanoylamino)butanoyl]amino]hexanoyl]amino]hexanoyl]-QAAEEFVQWLLEGGPSSGAPPPS-OH
- hGcgR CRE Luc EC50 (pM) [1]: 18.5 pM
- hGIPR CRE Luc EC50 (pM) [2]: 1.9 pM
- hGLP-1R CRE Luc EC50 (pM) [3]: 1 pM

B15: Compound No. 53 (peptide)
peptide: H[Aib]HGTFTSDYSILLEKQAAQEFVQWLLEGGPSSGAPPPS-OH
modifications: not fully specified (residue 16); printed as H-Aib-HGTFTSDYSILLE-K[(2S)-2-amino-6-[[(2S)-2-amino-6-[[(4S)-4-carboxy-4-(19-carboxynonadecanoylamino)butanoyl]amino]hexanoyl]amino]hexanoyl]-QAAQEFVQWLLEGGPSSGAPPPS-OH
- hGcgR CRE Luc EC50 (pM) [1]: 22 pM
- hGIPR CRE Luc EC50 (pM) [2]: 4.8 pM
- hGLP-1R CRE Luc EC50 (pM) [3]: 2.7 pM

B16: Compound No. 43 (peptide)
peptide: H[Aib]HGTFTSDYSILLEKQAA[Aib]EFVQWLLEGGPSSGAPPPS-NH2
modifications: not fully specified (residue 16); printed as H-Aib-HGTFTSDYSILLE-K[(2S)-2-amino-6-[[(2S)-2-amino-6-[[(4S)-4-carboxy-4-(19-carboxynonadecanoylamino)butanoyl]amino]hexanoyl]amino]hexanoyl]-QAA-Aib-EFVQWLLEGGPSSGAPPPS-NH2
- hGcgR CRE Luc EC50 (pM) [1]: 10.8 pM
- hGIPR CRE Luc EC50 (pM) [2]: 2.8 pM
- hGLP-1R CRE Luc EC50 (pM) [3]: 3 pM
